# The nanobody polyreactivity screen of Harvey et al. (2022)
# Test: yeast display, Sf9 membrane polyspecificity reagent, FACS + sequencing; frameworks hold sequencing errors
# Summary of the method: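 After 36–48 hours of galactose induction, yeast (Saccharomyces cerevisiae BJ5465) displaying a synthetic nanobody library were stained at 4 °C for 1 hour with 10% biotinylated, detergent-solubilized Sf9 membrane reagent. Streptavidin microbeads enriched the stained cells before FACS sorting into low and high (top ~1%) gates on anti-HA and streptavidin fluorescence. Each clone's polyreactivity label reflects its gate of origin.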
row,Sequence,polyreactivity (PSR sort gate)
1,QVQLVESGGGLVQAGGSLRLSCAASGSTFGSYAMGWYIQAPGKERELVAAISRAGSTYADSVKGRFTISRDNAKNTVYLQMNSLKPEDTAVYYCAKRDNALYYGYDYWGQGTQVTVSS,low polyreactivity
2,QVQLVESGGGLVQAGGSLRLSCAASGSTFGSYAMGWYRQAPGGERELVAAISWNGGRTYYADSVKGRFTISRDNAKNTVYLQMNSLKPEDTAVYYCAKVVKYQSGGGLEYWGQGTQVTVSS,high polyreactivity
3,QVQLVESGGGLVQAGGSLRLSCAASGSTFGSYAMGWYRQAPGKERELVAAISYSGGSTYYADSVKGRFTISRDNAKNTVYLLMNSLKPEDTAVYYCATVRKYRAMDYWGQGTQVTVSS,high polyreactivity
4,QVQLVESGGGLVQAGGSLRLSCAASGSTFGSYAMGWYRQAPGKERELVAAITSSGGRTYYADSVKGRFTISRDNSKNTVYLQMNSLKPEDTAVYYCAARPRGGVFEYGYWGQGTQVTVSS,high polyreactivity
5,QVQLVESGGGLVQAGGSLRLSCAASGSTFGSYAMGWYRQAPGKERELVAGISWSGGRTYYADSVKGRFTISRDNAKNTVYLQMNSLKPEDTAVYYCARDTGYYYARYNYWGQGTQVTVSS,low polyreactivity
6,QVQLVESGGGLVQAGGSLRLSCAASGSTFGSYARGWYRPAPGKERELVAAISRTGGSTRYADSVKGRFTISRDNAQNSVYFQMNSLKPEDSAVYYCNARLSSYSTIRGVYWGQGTQVTVSS,high polyreactivity
7,QVQLVESGGGLVQAGGSLRLSCAASGSTFGTYAMGWYRQAPGKERELVAAISSGDSTTYADSVKGRFTISRDNAKNTVYLQMNSLKPEDTAVYYCAARTFLMRNGGYNYWGQGTQVTVSS,low polyreactivity
8,QVQLVESGGGLVQAGGSLRLSCAASGSTFGTYAMGWYRQAPGKERELVAAITSGGSTDYADSVKGRFTISRDNAKNTVYLQMNSLKPEDTAVYYCNATWELLSYYYLFWGYDYWGQGTQVTVSS,low polyreactivity
9,QVQLVESGGGLVQAGGSLRLSCAASGSTFGVNAMGWYRQAPGKERELVAAIRSAVPTYYADSVKGRFTISRDNAKNTVYLQMNSLKPEDTAVYYCAKRWSAKYGFYYWGQGTQVTVSS,high polyreactivity
10,QVQLVESGGGLVQAGGSLRLSCAASGSTFGVNAMGWYRQAPGKERELVATISRGTSTNYADSVKGRFTISRDNAKNTVYLQINSLKPEDTAVYYCAKRVFYPGAYRYYYWGQGTQVTVSS,high polyreactivity
11,QVQLVESGGGLVQAGGSLRLSCAASGSTFGVNAMGWYRQAPGKERELVAVITRSGGSTYYADSVKGRFTISRDNAKNTVYLQMNSLKPEDTAVYYCAKSGVVDWGQGTQVTVSS,low polyreactivity
12,QVQLVESGGGLVQAGGSLRLSCAASGSTFGVNAMGWYRQAPGTERELVADISVRTDSTYYADSVKGRVTISRDNAKNTVYLQMNSLKAEDTAVYYCNAGLGIEYDYWGQGTQVSVSS,low polyreactivity
13,QVQLVESGGGLVQAGGSLRLSCAASGSTFGVYAMGWYRQAPGKEREFVAAISSSDGSTYYADSVKGRFTISRDNAKNTVYLQMNSLKPEDTAVYYCAKRGGYIYYAVTFTAEHGYWGQGTQVTVSS,low polyreactivity
14,QVQLVESGGGLVQAGGSLRLSCAASGSTFGVYAMGWYRQAPGKERELVAAISGSGAGTYYADSVKGRFTISRDNAKNTVYLQMNSLKPEDTAVYYFNKVSVRGQRYGYWGQGTQVTVSS,high polyreactivity
15,QVQLVESGGGLVQAGGSLRLSCAASGSTFGVYGMGWYRQAPGKERELVASITSDGNTNYADSVKGRFTISRDNAKNTVYLQMNSLKPEDTAVYYCNTVGIQALYDYWGQGTQVTVSS,low polyreactivity
16,QVQLVESGGGLVQAGGSLRLSCAASGSTFGWYAMGWYRQAPGKEREFVAAISWSGTSTYYADSVKGRFTISRDNAKNTVYLQMNSLKPEDTAVYYCNARSKRANRSLGLGYWGQGTQVTVSS,low polyreactivity
17,QVQLVESGGGLVQAGGSLRLSCAASGSTFGWYTMGWYRQAPGKERELVAAITSRGTRTSYADSVKGRFTISRDYAKNTVYLQMNSLKPEDTAVYYCAARVFRGLGEYYWGQGTQVTVSS,high polyreactivity
18,QVQLVESGGGLVQAGGSLRLSCAASGSTFGYAMGWYRQAPGKEREMVAAITSTGGSTYYADSVKGRFTISRDNAKNTVYVQMHSLKPEDTAVYYCAAQVGRGYEVYPVYKYGYWGQGTQVTVSS,high polyreactivity
19,QVQLVESGGGLVQAGGSLRLSCAASGSTFGYNAMGWDRQAPGKERELVAAITGNDGTTYYADSVKGRFTISRDNAKNSVYLQMNSLKPEDSAVYYCAARPYLGYIGYEYWGQGTQVTVSS,low polyreactivity
20,QVQLVESGGGLVQAGGSLRLSCAASGSTFGYNAMGWYRQAPGKERELVAAISNGSDRTYYADSVKGRFTISRDNAKNTVYLQMNSLKPEDTAVYYCAKDRDFSSPPTESGFDYWGQGTQVTVSS,low polyreactivity
21,QVQLVESGGGLVQAGGSLRLSCAASGSTFGYNAMGWYRQAPGKERELVAAISRGGRITYYADSVKGRFTISRDNAKNTVYLQMNSLKQEDTAVYNCAARVQWRGYGYYYWGQGTQVTVSS,high polyreactivity

row,Sequence,polyreactivity (PSR sort gate)
1,QVQLVESGGGLVQAGGSLRLSCAASGSTFGYNAMGWYRQAPGKERELVAAISRSGGRTYYADSVKGRFTISRDNAKNTVYLQMNSLKPEDTAVYYCATYYTNKVPARYYWGQGTQVTVSS,high polyreactivity
2,QVQLVESGGGLVQAGGSLRLSCAASGSTFGYNAMGWYRQAPGKERELVAGIRSSGGSTYYADSVKGRFTISRDNAKNTVYLQMNSLKTEDTAVSYCNTRRRRNEKMYYWGQGTQVTVSS,high polyreactivity
3,QVQLVESGGGLVQAGGSLRLSCAASGSTFGYNAMGWYRQAPGKERELVARITSSGGSTYYADSVKGRFTISRDNAKNTVYLQMNSLKPEDTAVYYCAAGYPYRAVYRYYYWGQGTQVTVSS,high polyreactivity
4,QVQLVESGGGLVQAGGSLRLSCAASGSTFGYNAMGWYRQAPGKERELVASITWSSGSTYYADSVKGRFTISRDNAKNTVYLQMNSLKPEDTAVYYCAADVEYWSYEFNYWGQGTQVTVSS,low polyreactivity
5,QVQLVESGGGLVQAGGSLRLSCAASGSTFGYNDMGWYRQAHGKERELVAVIDSGGSTNYADSVKGRFTISRDNAKNTVYLQMNSLKPEDTAVYYCAADRDKGNGADVWYGYDYWGQGTQVTVSS,low polyreactivity
6,QVQLVESGGGLVQAGGSLRLSCAASGSTFGYNGMGWFRQAPGKERELVAAISGGARTYADSVKGRFTISRDNAKNTVYLQMNSLKPEDTAVYYCAAGVFHIFSRGNYDPSEYEYWGQGTQVTVSS,low polyreactivity
7,QVQLVESGGGLVQAGGSLRLSCAASGSTFGYYAMGWDRQAPGKERELVAAISRRVGSTYYADSVKGRFTISRDNAKNTVSLQMNSLNPEDTAVYYWASTSVNPWRGDYDMYYWGQGTQVTVSS,high polyreactivity
8,QVQLVESGGGLVQAGGSLRLSCAASGSTFGYYAMGWSRQAPGKEREFVAAITYGDGNTYYADSVKGRFTISRDNAKNTVYLQMNRLKREDTEVYYCAKYYWGPTGAHGGYGYWGQGTQVTVCS,low polyreactivity
9,QVQLVESGGGLVQAGGSLRLSCAASGSTFGYYAMGWYRPAPGKERELVAAISSSAGTTYYADSVKGCFTISRDNAKNTVYLLMNRLKPEDTAVFYCAADAVSGHEYWGQGTQVTVSS,low polyreactivity
10,QVQLVESGGGLVQAGGSLRLSCAASGSTFGYYAMGWYRQAPGKERELVAAIRWCGGSTYADSVKGRFTISRDNAKNTVYLQMNSLKPEDTEVYYCAQYRWYGSVLGGYWGQGTQVTVSS,high polyreactivity
11,QVQLVESGGGLVQAGGSLRLSCAASGSTFGYYAMGWYRQAPGKERELVAAISGSGGSTYYADSVKGRFTISRDNAKNTVYLQMNSLKPEDTAVYYCAATFHRLPKWGSPYYYWGQGTQVTVSS,high polyreactivity
12,QVQLVESGGGLVQAGGSLRLSCAASGSTFGYYAMGWYRQAPGKERELVAAISKRGGSTYYADSVKGRFTISRDNAKNTVYLQMNSLKPEDTAVYYCAAAPYKYPGDYWGQGTQVTVSS,high polyreactivity
13,QVQLVESGGGLVQAGGSLRLSCAASGSTFGYYAMGWYRQAPGKERELVAAISVRGGRTYYADSVKGRFTISRDNAKNTVYLQMNSLKPEDTAVYYCATLLPGLGRYGYDYWGHGTQVTVSS,high polyreactivity
14,QVQLVESGGGLVQAGGSLRLSCAASGSTFGYYAMGWYRQAPGKERELVAAITRGGGRTYYADSVKGRFTISRDNAKNTVYLQMNSLKPEDTAVYYCAAVEPTREYYYWGQGTQVTVSS,high polyreactivity
15,QVQLVESGGGLVQAGGSLRLSCAASGSTFGYYAMGWYRQAPGKERELVAAITSSGGSTYYSDSVKGRFTISRDNAKNTVYLQMYSMNPEDTAVYDCNTRWCFYIDPFYYEYDYWGQGSQVTVSS,low polyreactivity
16,QVQLVESGGGLVQAGGSLRLSCAASGSTFGYYAMGWYRQAPGKERELVATITKRGGSTYADSVKGRFTISRDNAKNTVYLQMNSLKPEDTAVYYCAKLPFEDYDYWGQGTQVTVSS,low polyreactivity
17,QVQLVESGGGLVQAGGSLRLSCAASGSTFGYYAMGWYRQAPGKERELVATITWSGGSTNYADSVKGRFTISRDNAKNTVYLQMNSLKPEDTAVYYCAADLKYWYFGLAFIEVDYWGQGTQVTVSS,low polyreactivity
18,QVQLVESGGGLVQAGGSLRLSCAASGSTFGYYAMGWYRQAPGKESELVAAISAGGGSTYYADSVKGRFTISRDNAKNTVYLQLNSLKPEDTAVYFCAARRPHMPVKTYDYWGQGTLVTVSS,high polyreactivity
19,QVQLVESGGGLVQAGGSLRLSCAASGSTFGYYARGWYRQAPGKERELVAAISWSGTRTYYADSVKGRFTISRDNATNTVYLQMNSLKPEDTAVYYCAVRISRPRVYYYWGQGTQVTVSS,high polyreactivity
20,QVQLVESGGGLVQAGGSLRLSCAASGSTFGYYGMGWYRQAPGKERELVAAISTGGRTNYADSVKGRFTISRDNAKNTVYLQMNSLKPEVTAVYYCAADFLCTAYRPSWYRFDYWGQGTQVTVSS,low polyreactivity
